# Where a chain is given by its changes, count along the chain named. Like-named read-outs stand apart in the source and are kept apart here.
# T1: hCMET-Fc (The natural ectodomain is cleaved by furin after residue 307 into disulfide-linked alpha and beta chains. It is given here as one continuous stretch.)
# T1 construct: member of the panel m9
# T1 chain: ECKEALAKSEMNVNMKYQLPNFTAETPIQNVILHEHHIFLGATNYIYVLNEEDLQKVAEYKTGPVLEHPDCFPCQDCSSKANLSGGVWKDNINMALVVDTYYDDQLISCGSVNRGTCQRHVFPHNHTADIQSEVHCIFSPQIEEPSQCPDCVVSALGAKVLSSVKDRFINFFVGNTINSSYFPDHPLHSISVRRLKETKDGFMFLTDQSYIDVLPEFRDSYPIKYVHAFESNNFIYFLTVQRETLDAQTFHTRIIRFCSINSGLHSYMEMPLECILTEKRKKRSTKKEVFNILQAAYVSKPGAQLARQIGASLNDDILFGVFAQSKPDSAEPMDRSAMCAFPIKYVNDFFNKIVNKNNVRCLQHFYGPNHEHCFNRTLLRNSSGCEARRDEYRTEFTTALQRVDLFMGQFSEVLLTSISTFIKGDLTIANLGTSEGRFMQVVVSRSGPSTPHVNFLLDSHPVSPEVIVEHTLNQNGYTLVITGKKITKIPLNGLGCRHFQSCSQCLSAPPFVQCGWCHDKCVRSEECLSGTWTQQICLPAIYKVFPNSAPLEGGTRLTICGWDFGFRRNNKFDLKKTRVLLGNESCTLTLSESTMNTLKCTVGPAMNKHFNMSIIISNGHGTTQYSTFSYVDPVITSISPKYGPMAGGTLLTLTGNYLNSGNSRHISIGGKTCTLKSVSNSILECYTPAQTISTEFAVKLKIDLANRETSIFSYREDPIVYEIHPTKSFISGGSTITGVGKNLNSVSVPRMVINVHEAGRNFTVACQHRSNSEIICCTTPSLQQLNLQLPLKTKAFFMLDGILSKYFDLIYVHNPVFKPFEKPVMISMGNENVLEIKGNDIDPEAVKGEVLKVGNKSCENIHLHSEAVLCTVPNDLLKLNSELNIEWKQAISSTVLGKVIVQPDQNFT
# T2: hDR3-Fc (human, UniProt Q93038)
# T2 construct: Fc fusion; member of the panel m9
# T2 sequence (looked up): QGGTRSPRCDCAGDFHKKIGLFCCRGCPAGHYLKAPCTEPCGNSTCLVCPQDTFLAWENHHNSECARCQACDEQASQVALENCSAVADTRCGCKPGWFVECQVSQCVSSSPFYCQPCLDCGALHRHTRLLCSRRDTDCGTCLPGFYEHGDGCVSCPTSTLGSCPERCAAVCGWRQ
# T3: hDR6-Fc (human, UniProt O75509)
# T3 construct: Fc fusion; member of the panel m9
# T3 sequence (looked up): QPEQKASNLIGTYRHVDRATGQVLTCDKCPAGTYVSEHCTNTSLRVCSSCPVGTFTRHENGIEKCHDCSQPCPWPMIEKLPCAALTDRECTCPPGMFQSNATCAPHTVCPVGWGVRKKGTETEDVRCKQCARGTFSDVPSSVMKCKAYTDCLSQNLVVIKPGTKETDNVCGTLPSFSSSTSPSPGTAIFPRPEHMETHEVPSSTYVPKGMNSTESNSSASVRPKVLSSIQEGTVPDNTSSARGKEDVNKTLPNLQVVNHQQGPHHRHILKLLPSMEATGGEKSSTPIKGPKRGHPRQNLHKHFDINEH
# T4: hEpCAM-Fc (human, UniProt P16422)
# T4 construct: Fc fusion; member of the panel m9
# T4 sequence (looked up): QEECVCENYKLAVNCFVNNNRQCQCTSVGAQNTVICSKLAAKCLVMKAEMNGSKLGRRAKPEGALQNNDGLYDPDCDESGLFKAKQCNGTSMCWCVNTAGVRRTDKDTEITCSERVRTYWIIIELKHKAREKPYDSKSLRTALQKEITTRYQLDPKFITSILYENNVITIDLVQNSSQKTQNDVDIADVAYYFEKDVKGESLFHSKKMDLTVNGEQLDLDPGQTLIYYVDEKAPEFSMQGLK
# T5: hVCAM-1 (human, UniProt P19320)
# T5 construct: purified recombinant protein; member of the panel m9
# T5 sequence (looked up): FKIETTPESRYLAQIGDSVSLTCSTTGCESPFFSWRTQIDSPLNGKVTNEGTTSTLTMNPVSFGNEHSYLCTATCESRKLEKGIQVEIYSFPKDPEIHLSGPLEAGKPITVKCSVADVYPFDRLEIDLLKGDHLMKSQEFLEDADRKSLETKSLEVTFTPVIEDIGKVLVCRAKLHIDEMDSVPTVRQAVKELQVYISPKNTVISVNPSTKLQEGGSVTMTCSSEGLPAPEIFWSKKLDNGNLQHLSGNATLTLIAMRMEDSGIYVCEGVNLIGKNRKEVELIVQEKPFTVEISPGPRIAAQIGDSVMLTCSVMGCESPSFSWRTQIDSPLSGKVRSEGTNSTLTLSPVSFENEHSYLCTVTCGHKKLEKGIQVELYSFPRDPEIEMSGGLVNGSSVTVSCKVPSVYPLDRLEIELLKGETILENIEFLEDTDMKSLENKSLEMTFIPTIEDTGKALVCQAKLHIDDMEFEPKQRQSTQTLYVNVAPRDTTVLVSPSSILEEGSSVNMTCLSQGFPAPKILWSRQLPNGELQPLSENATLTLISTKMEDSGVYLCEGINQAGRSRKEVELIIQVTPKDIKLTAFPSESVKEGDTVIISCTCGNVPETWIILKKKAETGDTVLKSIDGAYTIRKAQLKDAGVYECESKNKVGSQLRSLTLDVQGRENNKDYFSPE
# T6: hOX40-Fc
# T6 construct: member of the panel m9
# T6 chain: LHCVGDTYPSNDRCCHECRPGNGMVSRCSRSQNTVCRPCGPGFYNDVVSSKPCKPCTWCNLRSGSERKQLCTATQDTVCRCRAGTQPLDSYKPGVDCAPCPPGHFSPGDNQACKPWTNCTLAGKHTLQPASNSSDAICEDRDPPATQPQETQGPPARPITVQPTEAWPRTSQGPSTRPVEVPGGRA
# T7: hTWEAK-Fc (human, UniProt O43508)
# T7 construct: Fc fusion; member of the panel m9
# T7 sequence (looked up): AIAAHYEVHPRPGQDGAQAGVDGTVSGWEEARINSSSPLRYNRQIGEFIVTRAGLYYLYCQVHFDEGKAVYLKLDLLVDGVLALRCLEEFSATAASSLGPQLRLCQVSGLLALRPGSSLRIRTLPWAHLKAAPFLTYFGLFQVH
# T8: hVCAM-Fc
# T8 construct: member of the panel m9
# T8 chain: T5 sequence (looked up)
# B1: E-C7 (antibody, IgG1, V domains shown)
# VH: QVQLVQSGAEVKKPGASVKVSCKASGYTFTDYYMNWVRQAPGQGLEWMGRIYPGSGNTYYAQKFQGRVTMTRDTSTSTVYMELSSLRSEDTAVYYCARGVYYYDYWGQGTLVTVSS
# VL: DIQMTQSPSSLSASVGDRVTITCRASQGIRTNLAWFQQKPGKAPKSLIYSASSLQSGVPSRFSGSGSGTDFTLTISSLQPEDFATYYCQQYNSYPRTFGGGTKVEIK
# notes: IgG1; also called C-KIT-E-C7
# B2: MH5.33 (antibody, IgG1, V domains shown)
# VH: B1 VH with D31N, G54A, Y101W
# VL: B1 VL with S50A, N92A, S93N
# notes: IgG1
# B3: E-C2 (antibody, IgG1, V domains shown)
# VH: B1 VH with Y103L
# VL: B1 VL with L33V, F36L, S53Y, L54R
# notes: IgG1; also called C-KIT-E-C2
# Tests used:
# [1] = target: T9, human C-KIT-Fc (human, UniProt P10721 26-524); experiment: direct ELISA at 1 µg/ml
# T9 construct: also called biotinylated human C-KIT-Fc; not shown: Fc part not described
# [2] = target: T10, cynomolgus monkey C-KIT-Fc (cynomolgus monkey); experiment: direct ELISA at 1 µg/ml
# T10 construct: also called cyno C-KIT-Fc
# [3] = target: T9, human C-KIT-Fc; experiment: HTRF competition vs Tb-h37M IgG1
# [4] = target: T10, cynomolgus monkey C-KIT-Fc; experiment: HTRF competition vs Tb-h37M IgG1
# [5] = target: T1, hCMET-Fc; experiment: direct ELISA on coated protein, IgG1
# [6] = target: T2, hDR3-Fc; experiment: direct ELISA on coated protein, IgG1
# [7] = target: T11, hCD4 (human, UniProt P01730); experiment: direct ELISA on coated protein, IgG1
# T11 construct: purified recombinant protein; member of the panel m9
# [8] = target: T3, hDR6-Fc; experiment: direct ELISA on coated protein, IgG1
# [9] = target: T4, hEpCAM-Fc; experiment: direct ELISA on coated protein, IgG1
# [10] = target: T5, hVCAM-1; experiment: direct ELISA on coated protein, IgG1
# [11] = target: T6, hOX40-Fc; experiment: direct ELISA on coated protein, IgG1
# [12] = target: T12, hICAM-1-Fc (human, UniProt P05362); experiment: direct ELISA on coated protein, IgG1
# T12 construct: Fc fusion; member of the panel m9
# T12 sequence (P05362 28-480 limits assumed): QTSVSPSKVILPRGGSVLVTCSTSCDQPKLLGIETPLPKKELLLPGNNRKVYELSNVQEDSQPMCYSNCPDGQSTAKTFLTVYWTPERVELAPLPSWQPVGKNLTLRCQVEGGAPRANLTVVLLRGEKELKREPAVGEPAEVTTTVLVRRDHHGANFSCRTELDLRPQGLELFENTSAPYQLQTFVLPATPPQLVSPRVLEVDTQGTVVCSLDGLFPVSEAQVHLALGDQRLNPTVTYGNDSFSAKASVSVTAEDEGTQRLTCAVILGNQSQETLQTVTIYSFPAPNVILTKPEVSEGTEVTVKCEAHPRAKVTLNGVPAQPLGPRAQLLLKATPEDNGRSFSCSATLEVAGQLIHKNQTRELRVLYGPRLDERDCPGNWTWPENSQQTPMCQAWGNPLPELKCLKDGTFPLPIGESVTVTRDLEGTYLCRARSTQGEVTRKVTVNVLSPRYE
# [13] = target: T13, hBAFFR-Fc (human, UniProt Q96RJ3); experiment: direct ELISA on coated protein, IgG1
# T13 construct: Fc fusion; member of the panel m9
# T13 sequence (Q96RJ3 7-71 limits assumed): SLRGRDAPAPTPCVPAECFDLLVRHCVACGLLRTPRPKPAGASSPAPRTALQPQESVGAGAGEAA
# [14] = target: T7, hTWEAK-Fc; experiment: direct ELISA on coated protein, IgG1
# [15] = target: T8, hVCAM-Fc; experiment: direct ELISA on coated protein, IgG1
# [16] = target: T14, hLTBR-Fc (human, UniProt P36941); experiment: direct ELISA on coated protein, IgG1
# T14 construct: Fc fusion; member of the panel m9
# T14 sequence (P36941 28-227 limits assumed): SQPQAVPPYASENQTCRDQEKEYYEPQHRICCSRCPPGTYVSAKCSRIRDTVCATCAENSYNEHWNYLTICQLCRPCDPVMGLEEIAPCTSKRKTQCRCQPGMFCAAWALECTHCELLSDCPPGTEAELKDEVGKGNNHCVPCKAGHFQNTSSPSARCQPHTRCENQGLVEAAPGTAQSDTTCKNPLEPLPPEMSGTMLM
# [17] = target: T15, h4-1BB-Fc; experiment: direct ELISA on coated protein, IgG1
# T15 construct: member of the panel m9
# T15 sequence (chain, as listed by the source limits assumed): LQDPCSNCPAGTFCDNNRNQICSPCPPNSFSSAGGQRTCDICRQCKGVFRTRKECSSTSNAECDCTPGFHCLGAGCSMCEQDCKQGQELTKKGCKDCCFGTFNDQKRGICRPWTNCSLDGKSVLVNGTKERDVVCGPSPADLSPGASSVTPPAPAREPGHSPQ
# [18] = target: T16, human C-KIT, full length, on cells (human, UniProt P10721 26-976); experiment: flow cytometry, CHO-K1 transfectants
# T16 construct: full-length cDNA stably transfected in CHO-K1; also used here for endogenous C-KIT of TF-1 cells; also called human C-KIT+ CHO-K1 cells; C-KIT on TF-1 cells
# [19] = target: T9, human C-KIT-Fc; experiment: direct titration ELISA on coated C-KIT-Fc, IgG1 format
# [20] = target: T9, human C-KIT-Fc; experiment: as above; remark: listed apart in the source
# [21] = target: T1, hCMET-Fc; experiment: direct ELISA on coated protein, IgG1
# [22] = target: T2, hDR3-Fc; experiment: direct ELISA on coated protein, IgG1; remark: listed apart in the source
# [23] = target: T11, hCD4; experiment: direct ELISA on coated protein, IgG1; remark: listed apart in the source
# [24] = target: T3, hDR6-Fc; experiment: direct ELISA on coated protein, IgG1; remark: listed apart in the source
# [25] = target: T4, hEpCAM-Fc; experiment: direct ELISA on coated protein, IgG1; remark: listed apart in the source
# [26] = target: T5, hVCAM-1; experiment: direct ELISA on coated protein, IgG1; remark: listed apart in the source
# [27] = target: T6, hOX40-Fc; experiment: direct ELISA on coated protein, IgG1
# [28] = target: T12, hICAM-1-Fc; experiment: direct ELISA on coated protein, IgG1; remark: listed apart in the source
# [29] = target: T13, hBAFFR-Fc; experiment: direct ELISA on coated protein, IgG1; remark: listed apart in the source
# [30] = target: T7, hTWEAK-Fc; experiment: direct ELISA on coated protein, IgG1; remark: listed apart in the source
# [31] = target: T8, hVCAM-Fc; experiment: direct ELISA on coated protein, IgG1
# [32] = target: T14, hLTBR-Fc; experiment: direct ELISA on coated protein, IgG1; remark: listed apart in the source
# [33] = target: T15, h4-1BB-Fc; experiment: direct ELISA on coated protein, IgG1; remark: listed apart in the source
binder,measurement,setting,value
B1,OD450 nm,[1],> 1.8 OD450 nm
same,OD450 nm,[2],> 2 OD450 nm
same,IC50,[3],0.028 mg/L
same,IC50,[4],0.051 mg/L
same,binding result,[5],no binding (tested: 1 µg/ml)
same,binding result,[6],no binding (tested: 1 µg/ml)
same,binding result,[7],no binding (tested: 1 µg/ml)
same,binding result,[8],no binding (tested: 1 µg/ml)
same,binding result,[9],no binding (tested: 1 µg/ml)
same,binding result,[10],no binding (tested: 1 µg/ml)
same,binding result,[11],no binding (tested: 1 µg/ml)
same,binding result,[12],no binding (tested: 1 µg/ml)
same,binding result,[13],no binding (tested: 1 µg/ml)
same,binding result,[14],no binding (tested: 1 µg/ml)
same,binding result,[15],no binding (tested: 1 µg/ml)
same,binding result,[16],no binding (tested: 1 µg/ml)
same,binding result,[17],no binding (tested: 1 µg/ml)
B2,binding result,[18],binds
same,binding result,[19],no binding (tested: 10 µg/ml)
B3,EC50 (read off the curve),[20],~0.1 mg/L
same,binding result,[21],no binding (tested: 1 µg/ml)
same,binding result,[22],no binding (tested: 1 µg/ml)
same,binding result,[23],no binding (tested: 1 µg/ml)
same,binding result,[24],no binding (tested: 1 µg/ml)
same,binding result,[25],no binding (tested: 1 µg/ml)
same,binding result,[26],no binding (tested: 1 µg/ml)
same,binding result,[27],no binding (tested: 1 µg/ml)
same,binding result,[28],no binding (tested: 1 µg/ml)
same,binding result,[29],no binding (tested: 1 µg/ml)
same,binding result,[30],no binding (tested: 1 µg/ml)
same,binding result,[31],no binding (tested: 1 µg/ml)
same,binding result,[32],no binding (tested: 1 µg/ml)
same,binding result,[33],no binding (tested: 1 µg/ml)
same,OD450 nm,[1],> 1.8 OD450 nm
same,OD450 nm,[2],> 2 OD450 nm

# Reference: US20200283521A1 (GRANULAR THERAPEUTICS, published 2020)
